Results: patent publication US20030186281A1, “Modified tetracycline repressor protein compositions and methods of use” (priority 2001, published 2003)
Where a chain is given by its changes, count along the chain named. Names may count otherwise.

B1: Clone 4b (protein)
chain: MSRLDKSKVINSALELLNEVGIEGLTTRKLAQKLGVEQPTLYWHVKNKRALLDALAVEILARHHDYSLPAAGESWQSFLRNNAMSFRRALLRYRDRAKVHLGTRPDEKQYDTVETQLRFMTENGFSLRDGLYAISAVSHFTLGAVLEQQEHTAALTDRPAAPDENLPPLLREALQIMDSDDGEQAFLHGLESLIRGFEVQLTALLQIV
modifications: revTetR4b
B2: Clone 11 (protein)
chain: B1 chain with R96G, V99E
modifications: revTetR11
B3: TetRrevAD2/6: revTetR(BD) N18Y G21E E23K (protein)
chain: B1 chain with N18Y, G21E, E23K, R96G
modifications: Modified tetracycline repressor
notes: revTetR(BD) N18Y G21E E23K
B4: TetRrevAD3/2: revTetR(BD) A56P E58H A61A H63Y (protein)
chain: B1 chain with A56P, E58H, H63Y, R96G
modifications: Modified tetracycline repressor
notes: revTetR(BD) A56P E58H A61A H63Y
B5: TetRrevAD2/13: revTetR(BD) E19D V20E E23K V57L I59N L60F A61A (protein)
chain: B1 chain with E19D, V20E, E23K, V57L, I59N, L60F, R96G
modifications: Modified tetracycline repressor
notes: revTetR(BD) E19D V20E E23K V57L I59N L60F A61A
B6: TetRrevAD1/6: revTetR(BD) N18Y E23V D53A A54S L55L A56S A61T H63Y (protein)
chain: B1 chain with N18Y, E23V, D53A, A54S, A56S, A61T, H63Y, R96G
modifications: Modified tetracycline repressor
notes: revTetR(BD) N18Y E23V D53A A54S L55L A56S A61T H63Y
B7: TetRrevAF2/5: revTetR(BD) L14R E!9E D95H L101P (protein)
chain: B1 chain with L14R, D95H, R96G, L101P
modifications: Modified tetracycline repressor
notes: revTetR(BD) L14R E!9E D95H L101P
B8: TetRrevAF1/7: revTetR(BD) G96R L101I (protein)
chain: B1 chain with L101I
modifications: Modified tetracycline repressor
notes: revTetR(BD) G96R L101I
B9: TetRrevAtc4-10: revTetR(BD) I59N L60F A61G (protein)
chain: B1 chain with I59N, L60F, A61G, R96G
modifications: Modified tetracycline repressor
notes: revTetR(BD) I59N L60F A61G
B10: TetRrevAF2/7: revTetR(BD) Y93C D95E A97T (protein)
chain: B1 chain with Y93C, D95E, R96G, A97T
modifications: Modified tetracycline repressor
notes: revTetR(BD) Y93C D95E A97T
B11: TetRrevAF6/12: revTetR(BD) L14F E15E G96V K98E V99L L101P (protein)
chain: B1 chain with L14F, R96V, K98E, V99L, L101P
modifications: Modified tetracycline repressor
notes: revTetR(BD) L14F E15E G96V K98E V99L L101P
B12: TetRrevAF1/8: revTetR(BD) G24G Y93N L101F G102D (protein)
chain: B1 chain with Y93N, R96G, L101F, G102D
modifications: Modified tetracycline repressor
notes: revTetR(BD) G24G Y93N L101F G102D
B13: TetRrevAF1/11: revTetR(BD) L14I V20V I22L R94H A97A V99E (protein)
chain: B1 chain with L14I, I22L, R94H, R96G, V99E
modifications: Modified tetracycline repressor
notes: revTetR(BD) L14I V20V I22L R94H A97A V99E
B14: TetRrevAF1/3: revTetR(BD) G24G D95A G96R (protein)
chain: B1 chain with D95A
modifications: Modified tetracycline repressor
notes: revTetR(BD) G24G D95A G96R
B15: TetRrevAD2/2: revTetR(BD) L14I G21R A56V (protein)
chain: B1 chain with L14I, G21R, A56V, R96G
modifications: Modified tetracycline repressor
notes: revTetR(BD) L14I G21R A56V
B16: TetRrevAD2/12: revTetR(BD) E23H D53Y A56A E58Q I59T (protein)
chain: B1 chain with E23H, D53Y, E58Q, I59T, R96G
modifications: Modified tetracycline repressor
notes: revTetR(BD) E23H D53Y A56A E58Q I59T
B17: TetRrevAF1/4: revTetR(BD) N18K D95V G96V A97V (protein)
chain: B1 chain with N18K, D95V, R96V, A97V
modifications: Modified tetracycline repressor
notes: revTetR(BD) N18K D95V G96V A97V
B18: TetRrevAD2/4: revTetR(BD) L17F N18R D53N I59M A61T (protein)
chain: B1 chain with L17F, N18R, D53N, I59M, A61T, R96G
modifications: Modified tetracycline repressor
notes: revTetR(BD) L17F N18R D53N I59M A61T
B19: TetRrevAF1/5: revTetR(BD) L14V G24G Y93D R94G D95G (protein)
chain: B1 chain with L14V, Y93D, R94G, D95G, R96G
modifications: Modified tetracycline repressor
notes: revTetR(BD) L14V G24G Y93D R94G D95G
B20: TetRrevAD1/2: revTetR(BD) N18Y L52L D53Y A54A I59T (protein)
chain: B1 chain with N18Y, D53Y, I59T, R96G
modifications: Modified tetracycline repressor
notes: revTetR(BD) N18Y L52L D53Y A54A I59T

tested on: tet operator sequence; assay: β-galactosidase activity of a tetracycline-regulated promoter in transformed E. coli with revTetR, in the presence and absence of anhydrotetracycline (atc); assay type: cell-based, Escherichia coli; conditions: 28° C.
Description: The relative activity of revTetR repressors was determined at 28° C. and 37° C. for each clone by measuring β-galactosidase activity of a tetracycline-regulated promoter in transformed Escherichia coli in the presence and absence of the tetracycline analog, anhydrotetracycline (atc). The relative β-galactosidase activity was measured in standard Miller units and is presented as the percent of maximal expression as measured in the absence of Tet repressor. […] With respect to each mutant, as well as the wild-type controls, FIG. 2 provides two horizontal bars; the upper horizontal bar represents the level of β-galactosidase activity in the absence of anhydrotetracycline (−atc) while the lower horizontal bar represents the level of β-galactosidase activity in the presence of anhydrotetracycline (+atc).
The pool of mutated Tet repressors was cloned into plasmid pWH1411 (Baumeister et al., 1992, Proteins: Struct. Funct. Genet. 14: 168-77), which carries a TetR(B) gene, to provide a TetR(BD) chimera that included, as the amino-terminal portion, amino acid residues 1 to 50 of the TetR(B) gene and, as the carboxyl-terminal portion, amino acid residues 51 to 208 of the TetR(D) gene. The resulting plasmid pool was screened in a genetic assay which positively selects for a functional interaction between a Tet repressor and its cognate operator using E. coli strain WH207(λWH25) (the construction of this strain is described in detail in Wissmann et al., (1991) Genetics 128: 225-32). In this E. coli strain, tet operators direct the expression of divergently arranged β-galactosidase (lacZ) and Lac repressor (lacI) genes and the lac regulatory region directs the expression of a galactokinase (galK) gene on plasmid pWH414. Binding of Tet repressors to tet operators turns off transcription of the lacI and lacZ genes. The absence of Lac repressor allows for expression of the galK gene, which enables the E. coli strain to use galactose as a sole carbon source, which serves as one marker. The lacZ^− phenotype serves as a second marker. Thus, bacteria containing Tet repressors which bind to tet operators, have a Gal^+, lacZ^− phenotype. Bacteria containing wild-type Tet repressors have a Gal^+, lacZ^− phenotype in the absence of tetracycline. Modified “reverse” Tet repressors (revTetR) were selected based upon a Gal^+, lacZ^− phenotype in the presence of tetracycline.
The ability of each revTetR clone to bind to its cognate tet operator sequence and regulate transcription in a prokaryotic organism, Escherichia coli, in the presence and absence of a tetracycline analog (anhydrotetracycline, atc) was determined (Table 3, FIG. 2). The relative ratios of non-repressed to repressed levels of transcription for the 15 clones range from about 1.4-fold to about 50-fold at 28° C. and from about 1.3-fold to 40-fold at 37° C. For example, clone 4b comprising an amino acid substitution of glutamic acid for glycine at position 96 (e.g., SEQ ID NO. 24) repressed transcription 19-fold at 37° C. but to a less extent at 28° C. (5.7-fold, Table 3). Furthermore, clones 14, 5a and 7 comprising the arginine for glycine substitution at position 96 and further comprising a substitution or substitutions of serine for threonine at position 103 and valine for glutamic acid at position 114; leucine for proline at position 159; or glutamine to histidine at position 188, respectively, have pronouncedly different activities.
wherein each underlined base was present in approximately 85% of the oligonucleotides, while the remaining approximately 15% of the oligonucleotides contained one of the other three, non-wild type bases at that position. Similar mutagenic, partially randomized oligonucleotides were prepared for mutagenesis of the coding regions for amino acids 14-25 and 93-102. It was predicted that, according to a binomial distribution, each oligonucleotide would contain three to four mutations. […]

| Molecule | repression of transcription (ratio of non-repressed to repressed levels of transcription) |
| --- | --- |
| B1 | 5.7 fold |
| B2 | 18 fold |

same assay, conditions: 28° C.; E. coli; absence vs presence of anhydrotetracycline

| Molecule | Relative Activity of revTetR repressors, 28° C. ratio (non-repressed to repressed levels of transcription) |
| --- | --- |
| B1 | 5.7 |
| B2 | 18.1 |

same assay, conditions: 37° C.

| Molecule | repression of transcription (ratio of non-repressed to repressed levels of transcription) |
| --- | --- |
| B1 | 19 fold |
| B2 | 41 fold |

same assay, conditions: 37° C.; E. coli; absence vs presence of anhydrotetracycline

| Molecule | Relative Activity of revTetR repressors, 37° C. ratio (non-repressed to repressed levels of transcription) |
| --- | --- |
| B1 | 19.0 |
| B2 | 41.1 |

same assay, conditions: RevTetR isolate cultured in the absence of anhydrotetracycline (ATC)

| Molecule | β-Galactosidase Activity, Cultured Without ATC |
| --- | --- |
| B3 | 89.5374 |
| B4 | 60.3284 |
| B5 | 71.1255 |
| B6 | 85.6043 |
| B7 | 97.8373 |
| B8 | 72.199 |
| B9 | 69.401 |
| B10 | 70.3163 |
| B11 | 82.6734 |
| B12 | 42.088 |
| B13 | 96.2362 |
| B14 | 59.773 |
| B15 | 94.968 |
| B16 | 73.5981 |
| B17 | 81.2613 |
| B18 | 32.2603 |
| B19 | 102.015 |
| B20 | 84.85 |

same assay, conditions: RevTetR isolate cultured in the presence of anhydrotetracycline (ATC)

| Molecule | β-Galactosidase Activity, Cultured With ATC |
| --- | --- |
| B3 | 3.8811 |
| B4 | 3.5891 |
| B5 | 1.3355 |
| B6 | 2.5079 |
| B7 | 2.4067 |
| B8 | 2.2753 |
| B9 | 11.275 |
| B10 | 2.8977 |
| B11 | 1.3259 |
| B12 | 1.1643 |
| B13 | 1.1578 |
| B14 | 1.2536 |
| B15 | 5.2312 |
| B16 | 1.2806 |
| B17 | 13.459 |
| B18 | 1.0068 |
| B19 | 1.1988 |
| B20 | 1.6137 |
